This is an account of results in article PMC12042621 (Structure (London, England : 1993), 2025).

The target of this test is SARS-CoV-2 spike S1 (SARS-CoV-2, wild type (Wuhan-Hu-1), UniProt P0DTC2). Kind of test: SPR.

B1: S1-RBD-42_(E88K) (VHH)
VHH: QVQLVESGGGLVQAGGSLRLSCVVSGSTFSNTFMDWYRQAPGKQREFVATISSGGTTNYAVFVKGRFTISRDGAKNTVYLQMNSLKPEDTAVYYCHAALPIGGDYWGQGTQVTVS
With B1, the Kd (as a rule, a measure of binding affinity in units of concentration) stood at 100 pM.

B2: S1-RBD-14_(E89K) (VHH)
VHH: QVQLVESGGGLVQAGGSVRLSCAASGRSFSINPMGWFRQAPGKEREFVAAISWSGSKTVYVDSVKGRFSISRDNAKNTVYLQMNSLKPEDTAVYHCAVASRGPVYGANYVPGPHEYEYWGQGTQVTVS
B2: the Kd stood at 300 pM.
